According to US20230125550A1 (ARCELLX, published 2023):

B1: SEQ ID NO 747 (designed binder)
chain: MGSWKEFIQRLDAIHYRLWALGGSEAELAAFEKEIAAFESELQAYKGKGNPEVEYLRFVAAFIRFELQAYRHN
B2: SEQ ID NO 748 (designed binder)
chain: MGSWSEFIFRLDAIHSRLQALGGSEAELAAFEKEIAAFESELQAYKGKGNPEVEYLRFIAAEIRLKLQAYRHN
B3: SEQ ID NO 777 (designed binder)
chain: MGSWTEFWHRLEAIDSRLWALGGSEAELAAFEKEIAAFESELQAYKGKGNPEVESLREHAAHIRVWLQAYRHN
B4: SEQ ID NO 784 (designed binder)
chain: MGSWTEFVNRLYAIDSRLWALGGSEAELAAFEKEIAAFESELQAYKGKGNPEVEGLRTHAAKIRHWLQAYRHN
B5: SEQ ID NO 797 (designed binder)
chain: MGSWIEFKYRLDAIEWRLEALGGSEAELAAFEKEIAAFESELQAYKGKGNPEVESLRIHAAAIRTWLQAYRHN
B6: SEQ ID NO 758 (designed binder)
chain: MGSWLEFYHRLNAIDSRLWALGGSEAELAAFEKEIAAFESELQAYKGKGNPEVESLRDHAAHIREWLQAYRHN
B7: SEQ ID NO 789 (designed binder)
chain: MGSWTEFYQRLDAIDTRLWALGGSEAELAAFEKEIAAFESELQAYKGKGNPEVEGLRQQAAQIRAWLQAYRHN
B8: SEQ ID NO 767 (designed binder)
chain: MGSWIEFYWRLEAIDQRLWALGGSEAELAAFEKEIAAFESELQAYKGKGNPEVEDLRVHAAAIRWWLQAYRHN
B9: SEQ ID NO 786 (designed binder)
chain: MGSWVEFVSRLYAIDFRLWALGGSEAELAAFEKEIAAFESELQAYKGKGNPEVEALREHAAQIRDWLQAYRHN
B10: SEQ ID NO 775 (designed binder)
chain: MGSWYEFYLRLDAIDHRLWALGGSEAELAAFEKEIAAFESELQAYKGKGNPEVEMLREHAAHIRKWLQAYRHN
B11: SEQ ID NO 793 (designed binder)
chain: MGSWYEFYYRLEAIDNRLIALGGSEAELAAFEKEIAAFESELQAYKGKGNPEVEVLREHAAKIREWLQAYRHN
B12: SEQ ID NO 773 (designed binder)
chain: MGSWNEFFQRLNAIDERLWALGGSEAELAAFEKEIAAFESELQAYKGKGNPEVEDLRQHAANIRWWLQAYRHN
B13: SEQ ID NO 774 (designed binder)
chain: MGSWYEFVVRLFAIDERLWALGGSEAELAAFEKEIAAFESELQAYKGKGNPEVESLREHAAHIRSWLQAYRHN
B14: SEQ ID NO 782 (designed binder)
chain: MGSWTEFHQRLDAIDERLWALGGSEAELAAFEKEIAAFESELQAYKGKGNPEVEFLREHAAKIRMWLQAYRHN
B15: SEQ ID NO 795 (designed binder)
chain: MGSWYEFSHRLEAIEDRLFALGGSEAELAAFEKEIAAFESELQAYKGKGNPEVEPLREHAAYIRHWLQAYRHN
B16: SEQ ID NO 771 (designed binder)
chain: MGSWVEFVGRLNAIDARLWALGGSEAELAAFEKEIAAFESELQAYKGKGNPEVEELRHHAAEIRNWLQAYRHN
B17: SEQ ID NO 778 (designed binder)
chain: MGSWTEFQNRLNAIDHRLWALGGSEAELAAFEKEIAAFESELQAYKGKGNPEVESLREHAAKIRVWLQAYRHN
B18: SEQ ID NO 766 (designed binder)
chain: MGSWFEFYERLNAIDSRLWALGGSEAELAAFEKEIAAFESELQAYKGKGNPEVEKLRAHAASIRTWLQAYRHN
B19: SEQ ID NO 796 (designed binder)
chain: MGSWFEFFERLAAIEDRLWALGGSEAELAAFEKEIAAFESELQAYKGKGNPEVESLRVHAAAIRAFLQAYRHN
B20: SEQ ID NO 772 (designed binder)
chain: MGSWNEFMDRLNAIDNRLWALGGSEAELAAFEKEIAAFESELQAYKGKGNPEVENLRKQAASIRLWLQAYRHN
B21: SEQ ID NO 749 (designed binder)
chain: MGSWFEFYDRLNAIDARLWALGGSEAELAAFEKEIAAFESELQAYKGKGNPEVENLRVHAAAIREWLQAYRHN
B22: SEQ ID NO 776 (designed binder)
chain: MGSWYEFRARLLAIDERLWALGGSEAELAAFEKEIAAFESELQAYKGKGNPEVEHLREHAAHIRNFLQAYRHN
B23: SEQ ID NO 788 (designed binder)
chain: MGSWLEFHSRLDAIDTRLWALGGSEAELAAFEKEIAAFESELQAYKGKGNPEVEKLREHAAAIRHYLQAYRHN
B24: SEQ ID NO 785 (designed binder)
chain: MGSWMEFVDRLSAIDRRLWALGGSEAELAAFEKEIAAFESELQAYKGKGNPEVEVLREHAANIRQWLQAYRHN
B25: SEQ ID NO 769 (designed binder)
chain: MGSWEEFYYRLEAIDARLFALGGSEAELAAFEKEIAAFESELQAYKGKGNPEVEELRVHAAHIRDWLQAYRHN
B26: SEQ ID NO 780 (designed binder)
chain: MGSWYEFQQRLEAIDTRLWALGGSEAELAAFEKEIAAFESELQAYKGKGNPEVEELREHAAHIRHWLQAYRHN
B27: SEQ ID NO 799 (designed binder)
chain: MGSWVEFVTRLEAIEDRLFALGGSEAELAAFEKEIAAFESELQAYKGKGNPEVEHLRAHAAHIRHWLQAYRHN
B28: SEQ ID NO 794 (designed binder)
chain: MGSWYEFVSRLEAIDDRLYALGGSEAELAAFEKEIAAFESELQAYKGKGNPEVEMLRQHAAAIRHWLQAYRHN
B29: SEQ ID NO 779 (designed binder)
chain: MGSWSEFFKRLEAIDRRLWALGGSEAELAAFEKEIAAFESELQAYKGKGNPEVEELREHAAHIRVWLQAYRHN
B30: SEQ ID NO 781 (designed binder)
chain: MGSWTEFEKRLHAIDYRLWALGGSEAELAAFEKEIAAFESELQAYKGKGNPEVEDLREHAAAIRHWLQAYRHN
B31: SEQ ID NO 787 (designed binder)
chain: MGSWSEFHTRLDAIDTRLWALGGSEAELAAFEKEIAAFESELQAYKGKGNPEVEDLRRHAAAIRFWLQAYRHN
B32: SEQ ID NO 792 (designed binder)
chain: MGSWYEFYKRLEAIDNRLYALGGSEAELAAFEKEIAAFESELQAYKGKGNPEVEYLREHAAAIRHWLQAYRHN
B33: SEQ ID NO 798 (designed binder)
chain: MGSWYEFMYRLDAIEYRLFALGGSEAELAAFEKEIAAFESELQAYKGKGNPEVESLRIHAAMIREWLQAYRHN
B34: SEQ ID NO 768 (designed binder)
chain: MGSWSEFVKRLDAIDQRLWALGGSEAELAAFEKEIAAFESELQAYKGKGNPEVESLRVHAAAIRAWLQAYRHN
B35: SEQ ID NO 783 (designed binder)
chain: MGSWLEFSQRLTAIDSRLWALGGSEAELAAFEKEIAAFESELQAYKGKGNPEVENLREHAAKIRNWLQAYRHN
B36: SEQ ID NO 770 (designed binder)
chain: MGSWVEFHYRLQAIDARLWALGGSEAELAAFEKEIAAFESELQAYKGKGNPEVEELRVHAAHIRKWLQAYRHN
B37: SEQ ID NO 744 (designed binder)
chain: MGSWVEFSGRLIAIDNRLWALGGSEAELAAFEKEIAAFESELQAYKGKGNPEVEYLRMWAAEIRYILQAYRHN
B38: SEQ ID NO 746 (designed binder)
chain: MGSWHEFMERLIAIDGRLWALGGSEAELAAFEKEIAAFESELQAYKGKGNPEVEYLRFVAAFIRDVLQAYRHN
B39: SEQ ID NO 745 (designed binder)
chain: MGSWVEFHHRLFAIDERLWALGGSEAELAAFEKEIAAFESELQAYKGKGNPEVEYLRMVAAEIRYILQAYRHN
B40: SEQ ID NO 743 (designed binder)
chain: MGSWMEFFDRLVAIDERLWALGGSEAELAAFEKEIAAFESELQAYKGKGNPEVEYLRMWAAEIRFLLQAYRHN
B41: SEQ ID NO 742 (designed binder)
chain: MGSWHEFITRLEAIDQRLWALGGSEAELAAFEKEIAAFESELQAYKGKGNPEVEYLRFWAAEIRFILQAYRHN
B42: SEQ ID NO 741 (designed binder)
chain: MGSWHEFYDRLDAIYFRLWALGGSEAELAAFEKEIAAFESELQAYKGKGNPEVELLRLLAAEIRKELQAYRHN

target: T1, AFP p26 (human, UniProt P02771 381-609); experiment: phage ELISA, A450 target/A450 IgG1-Fc
T1 construct: The construct used is not described
T1 sequence: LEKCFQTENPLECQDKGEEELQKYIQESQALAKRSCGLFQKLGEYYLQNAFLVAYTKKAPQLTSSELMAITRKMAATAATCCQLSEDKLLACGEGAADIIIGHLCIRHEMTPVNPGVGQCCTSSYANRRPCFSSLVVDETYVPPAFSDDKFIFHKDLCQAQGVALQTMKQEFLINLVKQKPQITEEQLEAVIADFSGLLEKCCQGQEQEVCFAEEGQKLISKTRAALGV
Method in brief: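 Phage rescued with VCSM13 helper phage from phagemid colonies picked from panning output were tested on plates coated with goat anti-human IgG1-Fc antibody that carried either recombinant human target or IgG1-Fc. Bound phage were detected with HRP-conjugated anti-M13 antibody at 450 nm. The ELISA ratio is target absorbance over IgG1-Fc absorbance, averaged across all screened wells holding the clone.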

Q: B1 was tested. Which ELISA_avg did it give?
A: 18.4 ratio

Q: With B2 as the binder, how does the ELISA_avg read?
A: 28.3 ratio

Q: B3 was tested. Which ELISA_avg did it give?
A: 13.2 ratio

Q: Which ELISA_avg does the source give for B4 here?
A: 16.7 ratio

Q: Which ELISA_avg does the source give for B5 here?
A: 18.3 ratio

Q: With B6 as the binder, how does the ELISA_avg read?
A: 19.2 ratio

Q: B7 was tested. Which ELISA_avg did it give?
A: 29.7 ratio

Q: For B8, which ELISA_avg is on record?
A: 9.4 ratio

Q: With B9 as the binder, how does the ELISA_avg read?
A: 29 ratio

Q: B10 was tested. Which ELISA_avg did it give?
A: 16 ratio

Q: How did the ELISA_avg turn out when B11 was run?
A: 29.6 ratio

Q: Which ELISA_avg does the source give for B12 here?
A: 28.7 ratio

Q: For B13, which ELISA_avg is on record?
A: 18.2 ratio

Q: Which ELISA_avg does the source give for B14 here?
A: 24.4 ratio

Q: With B15 as the binder, how does the ELISA_avg read?
A: 26 ratio

Q: How did the ELISA_avg turn out when B16 was run?
A: 26 ratio

Q: For B17, which ELISA_avg is on record?
A: 30.5 ratio

Q: B18 was tested. Which ELISA_avg did it give?
A: 27.1 ratio

Q: Which ELISA_avg does the source give for B19 here?
A: 20.3 ratio

Q: B20 was tested. Which ELISA_avg did it give?
A: 10 ratio

Q: Which ELISA_avg does the source give for B21 here?
A: 5.92 ratio

Q: For B22, which ELISA_avg is on record?
A: 20.9 ratio

Q: Which ELISA_avg does the source give for B23 here?
A: 30.8 ratio

Q: For B24, which ELISA_avg is on record?
A: 32.1 ratio

Q: For B25, which ELISA_avg is on record?
A: 30.3 ratio

Q: Which ELISA_avg does the source give for B26 here?
A: 27.3 ratio

Q: B27 was tested. Which ELISA_avg did it give?
A: 11.7 ratio

Q: Which ELISA_avg does the source give for B28 here?
A: 33.1 ratio

Q: How did the ELISA_avg turn out when B29 was run?
A: 30.2 ratio

Q: Which ELISA_avg does the source give for B30 here?
A: 17.1 ratio

Q: B31 was tested. Which ELISA_avg did it give?
A: 23.5 ratio

Q: Which ELISA_avg does the source give for B32 here?
A: 30.8 ratio

Q: Which ELISA_avg does the source give for B33 here?
A: 19.4 ratio

Q: For B34, which ELISA_avg is on record?
A: 27 ratio

Q: For B35, which ELISA_avg is on record?
A: 30.4 ratio

Q: For B36, which ELISA_avg is on record?
A: 14.8 ratio

Q: B37 was tested. Which ELISA_avg did it give?
A: 5.28 ratio

Q: How did the ELISA_avg turn out when B38 was run?
A: 17.9 ratio

Q: With B39 as the binder, how does the ELISA_avg read?
A: 21.4 ratio

Q: How did the ELISA_avg turn out when B40 was run?
A: 18.6 ratio

Q: B41 was tested. Which ELISA_avg did it give?
A: 16.9 ratio

Q: Which ELISA_avg does the source give for B42 here?
A: 9.6 ratio
